In patent publication US20180273634A1 one finds koff, Kd and kon data, which are given here for 4 substances.

The target of test [1] is prostate specific antigen (PSA) (human) (UniProt P07288). The test can be described thus: SPR, Biacore 3000, PSA amine-coupled on CM4 chip, antibody in flow; dissociation followed 8 h. Background: In SPR one partner is held on a chip, and binding of the other changes the refractive index at the surface.
Test [2] has the same target. The test can be described thus: SPR, Biacore 3000, PSA amine-coupled on CM4 chip, antibody in flow.
Test [3] has the same target. The test can be described thus: SPR, Biacore 3000, PSA amine-coupled on CM4 chip, antibody in flow at 12.5-100 nM.

“And” between values parts separate entries of the source, which are not always exact repeats. Identical values can stand only once.

Chain of prostate specific antigen (PSA) (human) (P07288 25-261 limits assumed): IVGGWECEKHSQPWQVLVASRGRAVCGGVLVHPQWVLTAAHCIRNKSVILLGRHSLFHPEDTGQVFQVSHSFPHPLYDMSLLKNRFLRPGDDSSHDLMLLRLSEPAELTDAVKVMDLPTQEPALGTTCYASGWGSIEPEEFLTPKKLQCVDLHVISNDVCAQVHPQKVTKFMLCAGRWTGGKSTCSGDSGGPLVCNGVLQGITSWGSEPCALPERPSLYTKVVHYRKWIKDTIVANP

For the substance murine 5A10 monoclonal antibody (m5A10), the koff in test [1] is 6.3e-06 s⁻¹ and 5.4e-06 s⁻¹. The dissociation constant (Kd) in test [2] was 0.02 nM. In test [3], the kon is 290000 M⁻¹ s⁻¹ and 250000 M⁻¹ s⁻¹.
m5A10-DTPA (antibody) had a koff in test [1] of 6.3e-06 s⁻¹. The same substance gave a Kd in test [2] of 0.02 nM. Also, the kon in test [3] is 270000 M⁻¹ s⁻¹.
Taken in the same sequence, the figures for m5A10-DOTA (antibody) were 6.3e-06 s⁻¹, 0.02 nM and 280000 M⁻¹ s⁻¹.
Taken in the same sequence, the figures for m5A10-DFO (antibody) were 6.6e-06 s⁻¹, 0.02 nM and 290000 M⁻¹ s⁻¹.

Broadly, the koff is the rate constant with which the complex falls apart. Lower therefore signals a long-lived complex. The term Kd denotes the concentration at which binding is half-saturated. A low value points to a tighter complex. One may read the kon as the second-order rate constant of association. A low value points to slow association.
